The values that follow come from the Human Domainome abundance scans (Beltran et al. 2025).

± gives the uncertainty stated by the source.

B1: Protein S100-G, residues 1 to 79; numbered along this chain, P02633 (parent)
chain: MSAKKSPEELKGIFEKYAAKEGDPNQLSKEELKLLLQTEFPSLLKGPSTLDELFEELDKNGDGEVSFEEFQVLVKKISQ

The variants in the data set derive from B1. Description: abundance fitness (aPCA) (normalised: wild type 0, dead -1); higher = more abundant; growth selection in yeast, the domain comes from the species named. Particulars: Bos taurus.
With MSAKKSPEELKGIFEKYAAKEGDPNQLSKEELKLLLQTEFPSLLKGPSTLDHLFEELDKNGDGEVSFEEFQVLVKKISQ [E52H], the abundance fitness came to 0.04 ± 0.086. To MSAKKSPEELKGIFEKYAAKEGDPNQLSKEELKLLLQTEFPSLLKGPSTLDFLFEELDKNGDGEVSFEEFQVLVKKISQ [E52F] belongs -0.068 ± 0.084; to MSAKKSPEELKGIFEKYAAKEGDPNQLSKEELKLLLQTEFPSLLKGPSTLDDLFEELDKNGDGEVSFEEFQVLVKKISQ [E52D], -0.056 ± 0.084. To MSAKKSPEELKGIFEKYAAKEGDPNQLSKEELKLLLQTEFPSLLKGPSTLDALFEELDKNGDGEVSFEEFQVLVKKISQ [E52A] belongs -0.005 ± 0.066; to MSAKKSPEELKGIFEKYAAKEGDPNQLSKEELKLLLQTEFPSLLKGPSTLDKLFEELDKNGDGEVSFEEFQVLVKKISQ [E52K], 0.022 ± 0.077.

For MSAKKSPEELKGIFEKYAAKEGDPNQLSKEELKLLLQTEFPSLLKGPSTLDILFEELDKNGDGEVSFEEFQVLVKKISQ [E52I], the abundance fitness is -0.042 ± 0.081. On to MSAKKSPEELKGIFEKYAAKEGDPNQLSKEELKLLLQTEFPSLLKGPSTLDCLFEELDKNGDGEVSFEEFQVLVKKISQ [E52C], for which the abundance fitness is -0.122 ± 0.085. As to MSAKKSPEELKGIFEKYAAKEGDPNQLSKEELKLLLQTEFPSLLKGPSTLDGLFEELDKNGDGEVSFEEFQVLVKKISQ [E52G], the abundance fitness came out at 0.026 ± 0.07. The same measure for MSAKKSPEELKGIFEKYAAKEGDPNQLSKEELKLLLQTEFPSLLKGPSTLSELFEELDKNGDGEVSFEEFQVLVKKISQ [D51S]: -0.032 ± 0.062. As for MSAKKSPEELKGIFEKYAAKEGDPNQLSKEELKLLLQTEFPSLLKGPSTLVELFEELDKNGDGEVSFEEFQVLVKKISQ [D51V], the abundance fitness was -0.032 ± 0.073. For the variant MSAKKSPEELKGIFEKYAAKEGDPNQLSKEELKLLLQTEFPSLLKGPSTLIELFEELDKNGDGEVSFEEFQVLVKKISQ [D51I], the abundance fitness is -0.08 ± 0.086. For the variant MSAKKSPEELKGIFEKYAAKEGDPNQLSKEELKLLLQTEFPSLLKGPSTLMELFEELDKNGDGEVSFEEFQVLVKKISQ [D51M], the abundance fitness worked out at 0.005 ± 0.082. With MSAKKSPEELKGIFEKYAAKEGDPNQLSKEELKLLLQTEFPSLLKGPSTLFELFEELDKNGDGEVSFEEFQVLVKKISQ [D51F], the abundance fitness was -0.121 ± 0.082.

MSAKKSPEELKGIFEKYAAKEGDPNQLSKEELKLLLQTEFPSLLKGPSTLPELFEELDKNGDGEVSFEEFQVLVKKISQ [D51P]: the abundance fitness came out at 0.032 ± 0.072. Take MSAKKSPEELKGIFEKYAAKEGDPNQLSKEELKLLLQTEFPSLLKGPSTLKELFEELDKNGDGEVSFEEFQVLVKKISQ [D51K]: the abundance fitness was -0.043 ± 0.078. Turning to MSAKKSPEELKGIFEKYAAKEGDPNQLSKEELKLLLQTEFPSLLKGPSTLAELFEELDKNGDGEVSFEEFQVLVKKISQ [D51A], the abundance fitness is -0.032 ± 0.071. In the case of MSAKKSPEELKGIFEKYAAKEGDPNQLSKEELKLLLQTEFPSLLKGPSTLQELFEELDKNGDGEVSFEEFQVLVKKISQ [D51Q], the abundance fitness is -0.091 ± 0.081. Regarding MSAKKSPEELKGIFEKYAAKEGDPNQLSKEELKLLLQTEFPSLLKGPSTLWELFEELDKNGDGEVSFEEFQVLVKKISQ [D51W], the abundance fitness was -0.142 ± 0.081.

MSAKKSPEELKGIFEKYAAKEGDPNQLSKEELKLLLQTEFPSLLKGPSTLYELFEELDKNGDGEVSFEEFQVLVKKISQ [D51Y]: the abundance fitness is -0.145 ± 0.078. To MSAKKSPEELKGIFEKYAAKEGDPNQLSKEELKLLLQTEFPSLLKGPSTLNELFEELDKNGDGEVSFEEFQVLVKKISQ [D51N] belongs 0.032 ± 0.079. As for MSAKKSPEELKGIFEKYAAKEGDPNQLSKEELKLLLQTEFPSLLKGPSTLRELFEELDKNGDGEVSFEEFQVLVKKISQ [D51R], the abundance fitness was -0.07 ± 0.062. For MSAKKSPEELKGIFEKYAAKEGDPNQLSKEELKLLLQTEFPSLLKGPSTLGELFEELDKNGDGEVSFEEFQVLVKKISQ [D51G], the abundance fitness is -0.044 ± 0.076. To MSAKKSPEELKGIFEKYAAKEGDPNQLSKEELKLLLQTEFPSLLKGPSTLCELFEELDKNGDGEVSFEEFQVLVKKISQ [D51C] belongs 0.011 ± 0.084; to MSAKKSPEELKGIFEKYAAKEGDPNQLSKEELKLLLQTEFPSLLKGPSTLEELFEELDKNGDGEVSFEEFQVLVKKISQ [D51E], -0.07 ± 0.093; to MSAKKSPEELKGIFEKYAAKEGDPNQLSKEELKLLLQTEFPSLLKGPSTLLELFEELDKNGDGEVSFEEFQVLVKKISQ [D51L], -0.072 ± 0.063.

In the case of MSAKKSPEELKGIFEKYAAKEGDPNQLSKEELKLLLQTEFPSLLKGPSTEDELFEELDKNGDGEVSFEEFQVLVKKISQ [L50E], the abundance fitness was 0.007 ± 0.076. For the variant MSAKKSPEELKGIFEKYAAKEGDPNQLSKEELKLLLQTEFPSLLKGPSTNDELFEELDKNGDGEVSFEEFQVLVKKISQ [L50N], the abundance fitness was -0.094 ± 0.081. As to MSAKKSPEELKGIFEKYAAKEGDPNQLSKEELKLLLQTEFPSLLKGPSTRDELFEELDKNGDGEVSFEEFQVLVKKISQ [L50R], the abundance fitness is -0.044 ± 0.058. Take MSAKKSPEELKGIFEKYAAKEGDPNQLSKEELKLLLQTEFPSLLKGPSTKDELFEELDKNGDGEVSFEEFQVLVKKISQ [L50K]: the abundance fitness was -0.001 ± 0.07. The same measure for MSAKKSPEELKGIFEKYAAKEGDPNQLSKEELKLLLQTEFPSLLKGPSTQDELFEELDKNGDGEVSFEEFQVLVKKISQ [L50Q]: -0.028 ± 0.072; for MSAKKSPEELKGIFEKYAAKEGDPNQLSKEELKLLLQTEFPSLLKGPSTMDELFEELDKNGDGEVSFEEFQVLVKKISQ [L50M]: -0.01 ± 0.077. Consider MSAKKSPEELKGIFEKYAAKEGDPNQLSKEELKLLLQTEFPSLLKGPSTDDELFEELDKNGDGEVSFEEFQVLVKKISQ [L50D], for which the abundance fitness was -0.068 ± 0.082.

As to MSAKKSPEELKGIFEKYAAKEGDPNQLSKEELKLLLQTEFPSLLKGPSTPDELFEELDKNGDGEVSFEEFQVLVKKISQ [L50P], the abundance fitness is -0.059 ± 0.07. With MSAKKSPEELKGIFEKYAAKEGDPNQLSKEELKLLLQTEFPSLLKGPSTADELFEELDKNGDGEVSFEEFQVLVKKISQ [L50A], the abundance fitness is -0.044 ± 0.064.
